Assay results reported in the supplement of paper PMC9170038.

Experiments:
MS2 coat protein [1] = experiment: apparent KD of MS2 coat protein, switch ON state; designed switch direction (-1 OFF switch, 1 ON switch): -1; higher = weaker reporter binding; details: FMN input: 0 or 200 uM; Eterna round: R93 (includes R88 designs)
How it was run: (§1)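 Designed RNA switches, transcribed on-chip from Illumina sequencing clusters, were titrated with SNAP-549-labelled MS2 coat protein from 0.7 or 1.5 nM to 3 µM in twofold steps. The solution was 100 mM Tris-HCl pH 7.5, 80 mM KCl, 4 mM MgCl2, with constant ligand or without it. Apparent KD is the median over each design's normalised cluster binding-curve fits.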

MS2 coat protein [2] = experiment: apparent KD of MS2 coat protein, switch OFF state (with FMN for OFF switches, without FMN for ON switches); designed switch direction (-1 OFF switch, 1 ON switch): -1; higher = weaker reporter binding; details: FMN input: 0 or 200 uM; Eterna round: R93 (includes R88 designs)
How it was run: as §1

| Sequence | apparent KD of MS2 coat protein (MS2 coat protein [1]) [µM] | apparent KD of MS2 coat protein (MS2 coat protein [2]) [µM] |
| --- | --- | --- |
| AAAACGCUAGGAUAUACGAAAAAAAAGGGAGAAAAAAAGGGACAUGAGGAUCACCCAUGUAGAAGGAGCAAAAA [Diamond 88] | 0.0385 | 0.105 |
| AAAACGUGAGGAUAUGCACCAAAAAAGGUAUUUCGGGUACGACAUGAGGAUCACCCAUGUAGAAGGCACGAAAA [Frodo Flailing 13 - Jieux - Exclusion 2] | 0.0228 | 0.0198 |
| AAAACUCGAGGAUAUACGAACAUGUCAAAAGACGUGAAGGGACAUGAGGAUCACCCAUGUAGAAGGCGAGAAAA [Mat - Exclusion 2 - JL-Eli mod - D45] | 0.0554 | 0.123 |
| AAAACUGGAGGAUAUACAUGAGGAUCACCCAUGUGUGGGUAGACUGUGUCGGCGUCAGGUAGAAGGCCACAAAA [Gilly Gone Silly 31 - Jieux - Exclusion 3] | 0.185 | 0.167 |
| AAAACUGGAGGAUAUACGUACAUGUCAAAAGACGUGAAGGGACAUGAGGAUCACCCAUGUAGAAGGCUAGAAAA [JL Stem Breaker 8] | 0.0742 | 0.0286 |
| AAAAGCUCAGGAUAUACGGUCUGUUGUUGAGAAAUAUCGAAACAUGAGGAUCACCCAUGUAGAAGGGAGCGAAA [Exclusion2-cac2] | 0.108 | 0.269 |
| AAAAGGGCAGGAUAUGCGUACUCACGGGAAAGCUGGAUGGUACAUGAGGAUCACCCAUGUAGAAGGGCUAAAAA [Dora Explored 18 - Jieux - Exclusion 2] | 0.0328 | 0.0214 |
| AAAAGGUGAGGAUAUUCGAAAAUAAAAGAAAAUAAAAGAAAGAAGAAGGCACAUGAGGAUCACCCAUGUAAUAA [LROPPY Exclusion 4 - v02_deltaG=2.94 break up the As mixed] | 0.0301 | 0.027 |
| AAAAGUAGAGGAUAUACAUGAGGAUCACCCAUGUAGAAAGGAAGUGUAUAUAUGGCGUGUAGAAGGCUGCAUGA [Power strip] | 0.0293 | 0.0323 |
| AAAAGUGGAGGAUAUACAUGAGGAUCACCCAUGUGUAAAAAUAAAUACACAAAAGAAAGUAGAAGGCCACAAAA [Ex 3 May 10] | 0.0258 | 0.122 |
| AAAAUACAUGAGGAUCACCCAUGUGAGGAUAUGCGAAUAAAAAUAAAAUAAAAUAAAAGCAGAAGGCACGAAAA [EX 1 May 24] | 0.0334 | 0.0328 |
| AAAAUGUGAGGAUAUGUACGAAAAAAUAAAAAAAUAAAAGUACAGAAGGCACAUGAGGAUCACCCAUGUGGGAA [EX4 399: Minimal 12] | 0.158 | 0.094 |
| AAACAACAUGAGGAUCACCCAUGUCAGGAUAUGAACGAAAAUAAAUAAAAAUAAAAGUUCAGAAGGGACGAAAA [66%, Wbt, 16] | 0.0316 | 0.0497 |
| AAACCACAUGAGGAUCACCCAUGUUAGGAUAUGCUAUGGAAAUAAAAAAUAAAACAUAGCAGAAGGGACAAAAA [Mat - Exclusion 1 - Eli mod - D35] | 0.0197 | 0.0193 |
| AAACGUAGAGGAUAUACAAAAAGAUUACGAAAGUAAUCGGGACAUGAGGAUCACCCAUGUAGAAGGCUACGAAA [Mod2 of Meechl 64% 2] | 0.0367 | 0.0945 |
| AAAGAUGGAGGAUAUACAUGAGGAUCACCCAUGUAAAAAAAAAAGAGGGAAAAAGAAAGUAGAAGGCCACAAAA [Ex 3 May 44] | 0.0831 | 0.0464 |
| AAAGCGGCAGGAUAUACAGGAACAAAAGUAUGUGCAUCCGCACAUGAGGAUCACCCAUGUAGAAGGGCUAAUAA [Ontiti] | 0.167 | 0.27 |
| AAAGGAUCAGGAUAUGUGUGGAAAAAGUGUAUCCAAAAAAAACAUGAGGAUCACCCAUGUAGAAGGGAUCCAAA [Mod 2 of Normal (20/19) by Nando, Round 1] | 0.177 | 0.441 |
| AAAGUGUGAGGAUAUGUCAAAGGUCACGAAAGUGACAAAGGGCAGAAGGUACAUGAGGAUCACCCAUGUAAAAA [Opal 1] | 0.024 | 0.0199 |
| AAAUACCAAGGAUAUACAUGAGGAUCACCCAUGUACAAACCCGUGGAACGGAUCGUUGGUAGAAGGUGGAAAUA [Isleusso] | 0.0134 | 0.0122 |
| AAAUAGCAAGGAUAUACAUGAGGAUCACCCAUGUGACCCAGGUAUGGCAUAGAAUAGAGUAGAAGGUGCAAAUA [Mod 4 of Ex 3 Tesla 8 - Jieux - Exclusion 3] | 0.132 | 0.149 |
| AAAUAGUUAGGAUAUACAUGAGGAUCACCCAUGUGGACUUAUGGAGAAUAAUUUAAUGGUAGAAGGGACUAAAA [EX2 Malc#26] | 0.0543 | 0.0455 |

| Sequence | apparent KD of MS2 coat protein (MS2 coat protein [1]) [µM] | apparent KD of MS2 coat protein (MS2 coat protein [2]) [µM] |
| --- | --- | --- |
| AAAUUAGGAGGAUAUACAUGAGGAUCACCCAUGUGACGAUGUUACUGCAUGAAGUCAAGUAGAAGGUCUAAGAA [Cearar] | 0.0317 | 0.0442 |
| AAAUUGUCAGGAUAUCGUAUAAUAUGGAAAACAUAGAGAUACGAGAAGGGACAUGAGGAUCACCCAUGUAAAAC [May 96] | 0.0361 | 0.0311 |
| AACAAACAUGAGGAUCACCCAUGUCAGGAUAUGCAAACAACAAACAACAAACAACAAAGCAGAAGGGAUAGGAA [63%, Olong, 4] | 0.0271 | 0.0212 |
| AACAAGUCAGGAUAUUCGACAAGUAAAUAAGUAAAUCAAAAGAAGAAGGGACAUGAGGAUCACCCAUGUAAAUA [JR_Exc004_Sub401] | 0.0325 | 0.0213 |
| AACAGGUCAGGAUAUGUGGAAAAAAUAAAAAAAAAUAAAACACAGAAGGGACAUGAGGAUCACCCAUGUAAACA [Mat - Exclusion 4 - Mayanna - D143] | 0.0493 | 0.0568 |
| AACAGGUCAGGAUAUGUGGAAAAAAUAAAAAAAAUAAAAACACAGAAGGGACAUGAGGAUCACCCAUGUAAAAA [May 20] | 0.0595 | 0.0756 |
| AACAGUACAGGAUAUACAUGAGGAUCACCCAUGUGAGAGGAAUAAAACAAAAAUAAAAGUAGAAGGGUACUGGA [Ruby 45] | 0.035 | 0.106 |
| AACAGUACAGGAUAUACAUGAGGAUCACCCAUGUGAGCAUUAAAAGGCGUACCUAAAAGUAGAAGGGUACUGGA [JL Maslow Revisted mod 22] | 0.0248 | 0.0667 |
| AACAGUACAGGAUAUACAUGAGGAUCACCCAUGUGAGCAUUAAAAGGCGUACCUCAAAGUAGAAGGGUACUGGA [JL Maslow Revisted mod 23] | 0.107 | 0.0189 |
| AACAGUACAGGAUAUACAUGAGGAUCACCCAUGUGGGAAAAAAGAUCGAGAGAUCAAUGUAGAAGGGUACUGGA [JL In the Red 03] | 0.161 | 0.427 |
| AACAUACAUGAGGAUCACCCAUGUCAGGAUAUGCCGGGUUAGAGCCAACUGAAAAAACGUAGAAGGGACGAAAA [Bilbo Confounded 7 - Jieux - Exclusion 1] | 0.11 | 0.0903 |
| AACAUGUGAGGAUAUAAAAUGAAUAUAAAUUAUUAUCUUGAUUAGAAGGCACAUGAGGAUCACCCAUGUCUGAA [E4-1.2] | 0.0238 | 0.0253 |
| AACUAACAUGAGGAUCACCCAUGUCAGGAUAUGCAAAGAUCGAUCGAACGAUCGAUAAGCAGAAGGGACAAAAA [Amethyst 95] | 0.0233 | 0.0369 |
| AACUGACAUGAGGAUCACCCAUGUCAGGAUAUGAUUUGACGAAAUAAAUAAAGUCAUAUCAGAAGGGACAUGGA [Design 80: Sub-opt U] | 0.025 | 0.0504 |
| AACUGACAUGAGGAUCACCCAUGUCAGGAUAUGCUUCUAGGAAAAAUAAAAACUAGAUGCAGAAGGGAUAUGGG [Design 38] | 0.0222 | 0.0333 |
| AACUGGGCAGGAUAUACAUGAGGAUCACCCAUGUAAAGAAAAGAAAGAUCCGAGGAAAGUAGAAGGGCCUGGAA [Variant 4 of Mod 1 of Ex3 sub 3, by Tesla's Dusciple Round 1] | 0.0556 | 0.0913 |
| AAGAAACAUGAGGAUCACCCAUGUGAGGAUAUCUAAAAGAAAAGAAAAGAAAGAAGAAGGAGAAGGCACAAAGG [H—] | 0.0343 | 0.029 |
| AAGAAACAUGAGGAUCACCCAUGUGAGGAUAUUGAAGAAAGAAAGAAAGAAAGAAGAACAAGAAGGCACAAAGG [Quintus Magnus Maximus] | 0.0269 | 0.035 |
| AAGAACCAAGGAUAUACAUGAGGAUCACCCAUGUAAAAGAAAGAGGGAAAAGAGAAAAGUAGAAGGUGGAAGAA [Ptolemy VI Philometor] | 0.0275 | 0.0321 |
| AAGAACGAAGGAUAUACAUGAGGAUCACCCAUGUAAAAGAAAGAAAAGGGAAAGAAAAGUAGAAGGUCGAAGAA [Banenre Merenptah] | 0.0215 | 0.0331 |
| AAGAACGUAGGAUAUACAUGAGGAUCACCCAUGUAAAAGAAAGAGGGAAAAGAGAAAAGUAGAAGGACGAAGAA [Cleopatra II] | 0.0261 | 0.0382 |
| AAGAACUAAGGAUAUACAAAAUAAAAGAAAAGAAAGAAAGAACAUGAGGAUCACCCAUGUAGAAGGUAGAAGAA [Khakheperre Senusret II] | 0.0199 | 0.0151 |
